US20050234221A1 (Amgen, published 2005)

Target: T1, IL-17RB-3-Fc fusion protein (human)
T1 construct: Used as 5x concentrated conditioned medium; also called huIL-17RB-3 like-Fc; HIL17RB-3-Fc
Experiment: restates the competition assay of Example 8
Description: The conditioned media from 293E cells transfected to express IL-17E-Fc fusion protein (SEQ ID NO: 23), prepared as described in Example 7 above, was collected, concentrated and used for the binding assay. Specificity of ligand binding was determined by competition with soluble blocking receptors, either IL-17RB-2-Fc or IL-17RB-3-Fc fusion proteins (SEQ ID NOS: 22 or 23, respectively). IL-17R-Fc fusion protein (consisting of the extracellular domain of SEQ ID NO: 3) was purified from conditioned media collected from transfected 293E cells and used as a control. Conditioned media from 293E cells transfected with IL-17RB-2-Fc or IL-17-RB-3-Fc (deposited with the ATCC on Mar. 14, 2001 under Accession Nos. and respectively), as described in Example 6 above, was concentrated (5×) with an Amicon 3Kd cut-off Centracon (#4203) and used for blocking.
Prior to the binding assay, 0.5 ml of IL-17E-Fc fusion protein containing (1×) conditioned media was added into vials each containing 0.5 ml 5× conditioned media of IL-17RB-2-Fc, IL-17RB-3-Fc, or 0.5 ml of 5 μg/ml IL-17R-Fc protein in RPMI 1640. Each vial was incubated on ice for 2 hours.
Subsequently, GM3104A cells (1×10⁶ cells per sample) were incubated with 1 ml of 8% FBS/PBS, at 4° C. for 1 hour. […]

binding result: binds
B1: recombinant human IL-17E-Fc fusion protein (Fc fusion)
chain: YSHWPSCCPSKGQDTSEELLRWSTVPVPPLEPARPNRHPESCRASEDGPLNSRAISPWRYELDRDLNRLPQDLYHARCLCPHCVSLQTGSHMDPRGNSELLYHNQTVFYRRPCHGEKGTHKGYCLERRLYRVSLACVCVRPRVMGEPKSADKTHTCPPCPAPELLGGPSVFLFPPKPKDTLMISRTPEVTCVVVDVSHEDPEVKFNWYVDGVEVHNAKTKPREEQYNSTYRVVSVLTVLHQDWLNGKEYKCKVSNKALPAPIEKTISKAKGQPREPQVYTLPPSRDELTKNQVSLTCLVKGFYPSDDIAVEWESNGQPENNYKTTPPVLDSDGSFFLYSKLTVDKSRWQQGNVFSCSVMHEALHNHYTQKSLSLSPGK
notes: Used as conditioned medium of transfected 293E cells; also called IL-17 like-Fc; rhIL-17 like-Fc
